Data published in patent publication US20060222644A1 (Biogen, published 2006).

Assays:
[1] = biological target: T1, lymphotoxin beta receptor (LT-β-R) (human, UniProt P36941 31-435); experiment: FACS of Protein A-purified antibodies on HT29 cells
T1 construct: whole, on cells; also called LT-β receptor
Description: Co-transfections of 293-EBNA cells with chBHA10 and huBHA10 Versions 1-4 were scaled up and conditioned medium was harvested. Antibody was purified on Protein A-Sepharose and purified mAbs were assayed for activity. Binding to the lymphotoxin-beta receptor was determined by FACS analysis of protein A-purified antibodies on the cell-line HT29.
HT29 cells were harvested by treatment with PBS containing 5 mM EDTA for 30 minutes followed by vigorous agitation. Cells were distributed to round-bottom 96-well plates at 2.5×10⁵ cells/well. Supernatants from 293-E cells transfected with BHA10 variants were added to the wells at the indicated dilutions in a total volume of 100 μl and incubated at 4° C. for 1 hour. The cells were washed twice with FACS buffer (PBS containing 5% FBS) and incubated with a 1:100 dilution of PE-conjugated anti-human heavy and light chain antibody (Jackson ImmunoResearch Laboratories) for 1 hour. The cells were then washed 3 times with FACS buffer and resuspended in 100 μl of PBS containing 1.0% paraformaldehyde. Samples were then transferred to the FACS facility for analysis. Protein A-purified antibodies from 293-E cells transfected with BHA10 variants were assayed at the indicated concentrations as shown in FIG. 2. The Protein A-purified CBE11 and 5C8 (anti-CD40L antibody) research standards were used as positive and negative controls, respectively. Rank ordering of binding activity was chBHA10=Version 4 huBHA10=Version 2 huBHA10>Version 3 huBHA10.

[2] = biological target: T1, lymphotoxin beta receptor (LT-β-R); experiment: FACS staining of HT-29 cells with purified antibody; reference huCBE11

T1 sequence (P36941 31-435): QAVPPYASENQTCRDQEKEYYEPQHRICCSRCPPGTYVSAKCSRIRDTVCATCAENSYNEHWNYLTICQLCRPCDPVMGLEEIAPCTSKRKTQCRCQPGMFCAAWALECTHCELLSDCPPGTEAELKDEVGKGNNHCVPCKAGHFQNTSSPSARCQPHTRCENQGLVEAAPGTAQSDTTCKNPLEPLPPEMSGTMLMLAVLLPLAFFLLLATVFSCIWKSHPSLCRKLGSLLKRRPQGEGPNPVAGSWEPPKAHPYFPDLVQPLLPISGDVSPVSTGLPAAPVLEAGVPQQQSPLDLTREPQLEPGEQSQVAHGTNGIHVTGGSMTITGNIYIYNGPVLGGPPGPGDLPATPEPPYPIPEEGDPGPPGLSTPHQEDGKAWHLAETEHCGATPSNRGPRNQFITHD

B1: Version 4 huBHA10 (antibody, human IgG1, kappa, V domains shown)
VH: QVQLVQSGAEVKKPGSSVKVSCKASGYTFTTYYLHWVRQAPGQGLEWMGWIYPGNVHAQYNEKFKGRVTITADKSTSTAYMELSSLRSEDTAVYYCARSWEGFPYWGQGTTVTVSS
VL: DIQMTQSPSSLSASVGDRVTITCKASQNVGINVAWYQQKPGKAPKSLISSASYRYSGVPSRFSGSGSGTDFTLTISSLQPEDFATYFCQQYDTYPFTFGQGTKVEIKR
notes: Heavy chain #3 and Light chain #2; human IgG1/kappa; the 293-EBNA material from pKJS046 may still carry it; also called huBHA10 Version 4; humanized BHA10 antibody version 4
- binding result [1]: binds

B2: Version 3 huBHA10 (antibody, human IgG1, V domains shown)
VH: QVQLVQSGAEVKKPGSSVKVSCKASGYTFTTYYLHWVRQAPGQGLEWMGWIYPGNVHAQYNEKFKGRVTITADKSTSTAYMELSSLRSEDTAVYYCARSWEGFPYWGQGTTVTVSS
VL: DIQMTQSPSSLSASVGDRVTITCKASQNVGINVAWFQQKPGKAPKSLISSASYRYSGVPSRFSGSGSGTDFTLTISSLQPEDFATYYCQQYDTYPFTFGQGTKVEIK
notes: the 293-EBNA material may still carry it; also called huBHA10 Version 3
- binding result [1]: binds

B3: Version 2 huBHA10 (antibody, human IgG1, V domains shown)
VH: QVQLVQSGAEVKKPGSSVKVSCKASGYTFTTYYLHWVRQAPGQGLEWIGWIYPGNVHAQYNEKFKGRATITADKSTSTAYMELSSLRSEDTAVYYCARSWEGFPYWGQGTTVTVSS
VL: DIQMTQSPSSLSASVGDRVTITCKASQNVGINVAWYQQKPGKAPKSLISSASYRYSGVPSRFSGSGSGTDFTLTISSLQPEDFATYFCQQYDTYPFTFGQGTKVEIKR
notes: also called huBHA10 Version 2
- binding result [1]: binds

B4: chimeric BHA10 (chBHA10) (antibody, human IgG1, V domains shown)
VH: QVQLQQSGPELVKPGASVRISCKASGYTFTTYYLHWVKQRPGQGLEWIGWIYPGNVHAQYNEKFKGKATLTADKSSSTAYMQLSSLTSEDSAIYFCARSWEGFPYWGQGTTVTVSS
VL: DIVMTQSQKFMSTSVGDRVSVTCKASQNVGINVAWYQQKPGQSPKSLISSASYRYSGVPDRFTGSGSGTDFTLTITNVQSEDLAEYFCQQYDTYPFTFGSGTKLEIK
notes: expressed in 293-EBNA cells; also called chBHA 0
- apparent Kd, fold relative to huCBE11 [2]: ~2 fold
